Key:
Settings in all cases: protein: recombinant; tags: 6xHis; blunt
[1] = biological target: T1, E2F1 (Homo sapiens? (cDNA amplified, Huh7.5.1 …, UniProt Q01094 1-437)); assay: EMSA; probe 10 nM; EMSA binding buffer (Beyotime GS005; composition and pH not given), room temperature, 30 min; 8% TBE agarose gel as stated, on ice, 80 V 1.5 h
[2] = biological target: T1, E2F1; assay: EMSA; E2F1 50-400 nM, probe 10 nM; EMSA binding buffer (Beyotime GS005; composition and pH not given), room temperature, 30 min; 8% TBE agarose gel as stated, on ice, 80 V 1.5 h
[3] = biological target: T1, E2F1; assay: competition; 10 uM unlabeled competitor vs 10 nM FAM-labeled N1; interaction abrogated; EMSA binding buffer (Beyotime GS005; composition and pH not given), room temperature, 30 min; 8% TBE agarose gel as stated, on ice, 80 V 1.5 h

T1 sequence (Q01094 whole entry): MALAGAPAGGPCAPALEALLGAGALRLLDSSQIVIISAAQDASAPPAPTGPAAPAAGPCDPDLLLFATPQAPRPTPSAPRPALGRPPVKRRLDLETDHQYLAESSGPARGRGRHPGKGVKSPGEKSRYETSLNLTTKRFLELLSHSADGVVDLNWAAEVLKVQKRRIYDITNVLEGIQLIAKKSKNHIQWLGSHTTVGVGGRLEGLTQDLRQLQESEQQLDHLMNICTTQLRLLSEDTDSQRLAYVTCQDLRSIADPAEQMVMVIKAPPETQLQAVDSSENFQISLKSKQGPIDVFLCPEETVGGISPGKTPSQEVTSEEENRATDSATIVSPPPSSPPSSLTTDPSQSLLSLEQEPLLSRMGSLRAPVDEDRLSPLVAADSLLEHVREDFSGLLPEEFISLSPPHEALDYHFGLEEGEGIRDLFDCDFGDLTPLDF

B1: NSUN2-Promoter-Mut-probe (dsDNA)
DNA 1: CTGACGATGGGATTCTTTGACCGCGCAGCCCA
DNA 2: TGGGCTGCGCGGTCAAAGAATCCCATCGTCAG
binding result [1]: no binding

B2: NSUN2-Promoter-probe (dsDNA)
DNA 1: CTGACGATTGCGCGCGAAGACCGCGCAGCCCA
DNA 2: TGGGCTGCGCGGTCTTCGCGCGCAATCGTCAG
binding result [2]: binds

B3: NSUN2-Promoter-probe, unlabeled competitor (dsDNA)
DNA 1: CTGACGATTGCGCGCGAAGACCGCGCAGCCCA
DNA 2: TGGGCTGCGCGGTCTTCGCGCGCAATCGTCAG
binding result [3]: binds

From publication PMC12233092, “NSUN2-mediated HCV RNA m5C Methylation Facilitates Viral RNA Stability and Replication”
